Like-named read-outs stand apart in the source and are kept apart here.
What was measured:
[1] = molecular target: P (Human respiratory syncytial virus) (UniProt P03421); settings: cited from earlier work
[2] = molecular target: P (Human respiratory syncytial virus) (UniProt P03421); test: ITC; settings: cited from earlier work
[3] = molecular target: RSV P D110A (untagged, from pP) (human respiratory syncytial virus, strain Long) (UniProt P12579)
[4] = molecular target: RSV P D95A (untagged, from pP) (human respiratory syncytial virus, strain Long) (UniProt P12579)

Substance	Kd [1] [µM]	Kd [2] [µM]	minigenome activity (firefly luciferase, pM/Luc) in BSRT7/5 cells [3] [% decrease]	minigenome activity (firefly luciferase, pM/Luc) in BSRT7/5 cells [4] [% decrease]
M2-1 (from UniProt P04545)	0.0081	3	–	–
RSV M2-1 expressed in BSRT7/5 cells, unphosphorylated form (from UniProt P04545 1-194) (natural protein)	–	–	50	50
